{"source": "patent US20110129854A1", "key": {"[1]": {"biological_target": "Cardiac troponin-T (human) (UniProt P45379)", "test": "sandwich chemiluminescent immunoassay (…); detection 7G7 conjugate, capture M8020207 microparticles; cTnT 0.5 ug/mL"}, "[2]": {"biological_target": "Cardiac troponin-T (human) (UniProt P45379)", "test": "sandwich chemiluminescent immunoassay (…); detection 7G7 conjugate, capture 1C11 microparticles; cTnT 0.5 ug/mL"}, "[3]": {"biological_target": "Cardiac troponin-T (human) (UniProt P45379)", "test": "sandwich chemiluminescent immunoassay (…); detection 7G7 conjugate, capture M8020207 microparticles; cTnT 0.25 ug/mL"}, "[4]": {"biological_target": "human cardiac troponin-I-T-C complex (human) (UniProt P63316)", "test": "sandwich chemiluminescent immunoassay (…); detection 7G7 conjugate 30 ng/mL, capture M8020207 microparticles; cTnITC standard, 0 pM cTnT (blank)"}, "[5]": {"biological_target": "human cardiac troponin-I-T-C complex (human) (UniProt P63316)", "test": "sandwich chemiluminescent immunoassay (…); detection 7G7 conjugate, capture M8020207 microparticles; human plasma spiked with cTnITC, nominal 7 pM cTnT"}, "[6]": {"biological_target": "Cardiac troponin-T (human) (UniProt P45379)", "test": "sandwich chemiluminescent immunoassay (…); detection 7G7 conjugate, capture 1C11 microparticles; cTnT 2 ug/mL"}, "[7]": {"biological_target": "Cardiac troponin-T (human) (UniProt P45379)", "test": "sandwich chemiluminescent immunoassay (…); detection 7G7 conjugate, capture 7F4 microparticles; cTnT 2 ug/mL"}, "[8]": {"biological_target": "Cardiac troponin-T (human) (UniProt P45379)", "test": "sandwich chemiluminescent immunoassay (…); detection 7G7 conjugate, capture M8020207 microparticles; cTnT 0 ug/mL (blank)"}, "[9]": {"biological_target": "human cardiac troponin-I-T-C complex (human) (UniProt P63316)", "test": "sandwich chemiluminescent immunoassay (…); detection 7G7 conjugate, capture M8020207 microparticles; negative human plasma without spiked cTnITC (blank)"}, "[10]": {"biological_target": "human cardiac troponin-I-T-C complex (human) (UniProt P63316)", "test": "sandwich chemiluminescent immunoassay (…); detection 7G7 conjugate 30 ng/mL, capture M8020207 microparticles; cTnITC standard, 14 pM cTnT"}, "[11]": {"biological_target": "Cardiac troponin-T (human) (UniProt P45379)", "test": "sandwich chemiluminescent immunoassay (…); detection 7G7 conjugate, capture 7F4 microparticles; cTnT 0.5 ug/mL"}, "[12]": {"biological_target": "Cardiac troponin-T (human) (UniProt P45379)", "test": "sandwich chemiluminescent immunoassay (…); detection 7G7 conjugate, capture 7F4 microparticles; cTnT 0 ug/mL (blank)"}, "[13]": {"biological_target": "Cardiac troponin-T (human) (UniProt P45379)", "test": "sandwich chemiluminescent immunoassay (…); detection 7G7 conjugate, capture 7F4 microparticles; cTnT 1 ug/mL"}, "[14]": {"biological_target": "human cardiac troponin-I-T-C complex (human) (UniProt P63316)", "test": "sandwich chemiluminescent immunoassay (…); detection 7G7 conjugate 30 ng/mL, capture M8020207 microparticles; cTnITC standard, 7 pM cTnT"}, "[15]": {"biological_target": "Cardiac troponin-T (human) (UniProt P45379)", "test": "sandwich chemiluminescent immunoassay (…); detection 7G7 conjugate, capture M8020207 microparticles; cTnT 2 ug/mL"}, "[16]": {"biological_target": "Cardiac troponin-T (human) (UniProt P45379)", "test": "sandwich chemiluminescent immunoassay (…); detection 7G7 conjugate, capture M8020207 microparticles; cTnT 1 ug/mL"}, "[17]": {"biological_target": "Cardiac troponin-T (human) (UniProt P45379)", "test": "sandwich chemiluminescent immunoassay (…); detection 7G7 conjugate, capture 7F4 microparticles; cTnT 0.25 ug/mL"}, "[18]": {"biological_target": "Cardiac troponin-T (human) (UniProt P45379)", "test": "sandwich chemiluminescent immunoassay (…); detection 7G7 conjugate, capture 1C11 microparticles; cTnT 0.25 ug/mL"}, "[19]": {"biological_target": "human cardiac troponin-I-T-C complex (human) (UniProt P63316)", "test": "sandwich chemiluminescent immunoassay (…); detection 7G7 conjugate 30 ng/mL, capture M8020207 microparticles; cTnITC standard, 42 pM cTnT"}, "[20]": {"biological_target": "human cardiac troponin-I-T-C complex (human) (UniProt P63316)", "test": "sandwich chemiluminescent immunoassay (…); detection 7G7 conjugate 30 ng/mL, capture M8020207 microparticles; cTnITC standard, 279 pM cTnT"}, "[21]": {"biological_target": "Cardiac troponin-T (human) (UniProt P45379)", "test": "sandwich chemiluminescent immunoassay (…); detection 7G7 conjugate, capture 1C11 microparticles; cTnT 1 ug/mL"}, "[22]": {"biological_target": "Cardiac troponin-T (human) (UniProt P45379)", "test": "sandwich chemiluminescent immunoassay (…); detection 7G7 conjugate, capture 1C11 microparticles; cTnT 0 ug/mL (blank)"}, "[23]": {"biological_target": "human cardiac troponin-I-T-C complex (human) (UniProt P63316)", "test": "sandwich chemiluminescent immunoassay (…); detection 7G7 conjugate, capture M8020207 microparticles; human plasma spiked with cTnITC, nominal 42 pM cTnT as labelled in the table"}}}
{"substance": "Murine anti-cardiac troponin-T 7G7 acridinium-9-carboxamide conjugate (antibody)", "values": [{"measurement": "RLU", "setting": "[1]", "result": 164000, "unit": "RLU"}, {"measurement": "RLU", "setting": "[2]", "result": 149000, "unit": "RLU"}, {"measurement": "RLU", "setting": "[3]", "result": 96200, "unit": "RLU"}, {"measurement": "RLU", "setting": "[4]", "result": 2370, "unit": "RLU"}, {"measurement": "RLU", "setting": "[5]", "result": 13800, "unit": "RLU"}, {"measurement": "RLU", "setting": "[6]", "result": 311000, "unit": "RLU"}, {"measurement": "RLU", "setting": "[7]", "result": 46800, "unit": "RLU"}, {"measurement": "RLU", "setting": "[8]", "result": 338, "unit": "RLU"}, {"measurement": "RLU", "setting": "[9]", "result": 2070, "unit": "RLU"}, {"measurement": "RLU", "setting": "[10]", "result": 28100, "unit": "RLU"}, {"measurement": "RLU", "setting": "[11]", "result": 17200, "unit": "RLU"}, {"measurement": "RLU", "setting": "[12]", "result": 333, "unit": "RLU"}, {"measurement": "RLU", "setting": "[13]", "result": 29900, "unit": "RLU"}, {"measurement": "RLU", "setting": "[14]", "result": 15300, "unit": "RLU"}, {"measurement": "RLU", "setting": "[15]", "result": 305000, "unit": "RLU"}, {"measurement": "RLU", "setting": "[16]", "result": 251000, "unit": "RLU"}, {"measurement": "RLU", "setting": "[17]", "result": 9080, "unit": "RLU"}, {"measurement": "RLU", "setting": "[18]", "result": 79400, "unit": "RLU"}, {"measurement": "RLU", "setting": "[19]", "result": 81500, "unit": "RLU"}, {"measurement": "RLU", "setting": "[20]", "result": 423000, "unit": "RLU"}, {"measurement": "RLU", "setting": "[21]", "result": 238000, "unit": "RLU"}, {"measurement": "RLU", "setting": "[22]", "result": 317, "unit": "RLU"}, {"measurement": "RLU", "setting": "[23]", "result": 74100, "unit": "RLU"}]}
